Measured values reported in patent US10688077B2, “Inflammasome activation in myelodysplastic syndromes” (H. Lee Moffitt Cancer Center and Research Institute, Inc., priority 2015, dated 2020).

Assays:
MDS BM-MNC = assay: Pyroptosis flow cytometry panel, MDS BM-MNC incubated with autologous BM plasma; assay type: cell-based, human
Procedure: For human samples, treated and untreated BM-MNC were incubated overnight in IMDM, supplemented with 10% autologous BM plasma. Subsequently, cells were harvested, washed twice in 1×PBS, and stained with LIVE/DEAD Violet fluorescent reactive dye according to the manufacturer's protocol (Life Technologies). Cells were resuspended in 1×PBS with 2% BSA, and incubated at room temperature for 15 minutes to block non-specific binding. After washing, cells were stained with 30×FAM-FLICA® Caspase-1 and Caspase-3/7 solution at a ratio of 1:30 for 2 hours at 37° C. Cells were washed and stained for cell surface receptors using CD38:PE-CF594, CD33:BV711, CD34:APC (BD Biosciences), and CD71:PE-Cyanine7 (eBioscience). All antibodies were diluted 1:20, and cells were stained for 30 minutes at 4° C. Cells were washed, resuspended in 1× binding buffer, and stained with Annexin-V:Cy5.5 at a dilution of 1:20 for 15 minutes at room temperature (BD Biosciences). 1× binding buffer was added to a final volume of 400 μL. Sample acquisitions were carried out using a BD LSR II flow cytometer and FACSDiva software (BD Biosciences). Calibration of the flow cytometer was carried out prior to each experiment using Rainbow Mid-Range Fluorescent Particles (BD Biosciences). To establish fluorescence compensation settings, ArC Amine Reactive Compensation Beads were used for LIVE/DEAD Violet staining (Life Technologies), and BD CompBead Plus Anti-Mouse Ig κ/Negative Control (BSA) Compensation Plus Particles were used for surface receptor conjugates (BD Biosciences). Data were analyzed using FlowJo 9.7.5 software (FlowJo, LLC, Ashland, Oreg.).

lower-risk MDS BM-MNC = assay: qPCR of pyroptosis-related gene expression in lower-risk MDS BM-MNC; assay type: cell-based, human; conditions: 24 hours, versus autologous BM plasma alone, n=5
Procedure: PCR RNA was isolated from BM-MNC using the RNeasy Mini Kit (Qiagen). cDNA was produced using the iScript cDNA Synthesis Kit (Bio-Rad). Sequences for primers can be found in Table 1. GAPDH mRNA was used for transcript normalization. cDNA was amplified using the iQ SYBR Green Supermix and the CFX96 Real-Time PCR Detection System (Bio-Rad). PCR conditions were as follows: 10 minutes at 95° C., followed by 40 cycles of amplification (15 seconds at 95° C. and 1 minute at 60° C.). Relative gene expression was calculated using the […] method.

B1: CD33-IgG1: S100A9 high-affinity chimeric (CD33-IgG1) decoy receptor (protein)
chain: DPNFWLQVQESVTVQEGLCVLVPCTFFHPIPYYDKNSPVHGYWFREGAIISRDSPVATNKLDQEVQEETQGRFRLLGDPSRNNCSLSIVDARRRDNGSYFFRMERGSTKYSYKSPQLSVHVTDLTHRPKILIPGTLEPGHSKNLTCSVSWACEQGTPPIFSWLSAAPTSLGPRTTHSSVLIITPRPQDHGTNLTCQVKFAGAGVTTERTIQLNVTYVPQNPTTGIFPGDGSGKQETRAGVVH
modifications: left off: a dimerising Fc or GST
For B1, the “reduction of the fraction of pyroptotic cells, maximum lineage-specific change, CD33+ cells” value (MDS BM-MNC; CD33+ immature myeloids, 0.5 μg CD33-IgG1 or 0.1 μM IRAK4 inhibitor, 24 hours, autologous BM plasma, n=4) was 68%, the “reduction of the fraction of pyroptotic cells, maximum lineage-specific change, CD71+ cells” value (MDS BM-MNC; CD71+ erythroids, 0.5 μg CD33-IgG1 or 0.1 μM IRAK4 inhibitor, 24 hours, autologous BM plasma, n=4) was 64% and the “fraction of pyroptotic cells across all lineages studied” value (MDS BM-MNC; MDS BM-MNC with autologous BM plasma (FIG. 20)) was “marked reduction”. For the same molecule, the “reduction of the fraction of pyroptotic cells, maximum lineage-specific change, progenitor cells” value (MDS BM-MNC; progenitor cells (CD34+CD38+), 0.5 μg CD33-IgG1 or 0.1 μM IRAK4 inhibitor, 24 hours, autologous BM plasma, n=4) was 23%, the MDSC fraction (MDS BM-MNC; short-term treatment) was “significantly reduced” and the “reduction of the fraction of pyroptotic cells, maximum lineage-specific change, stem cells” value (MDS BM-MNC; stem cells (CD34+CD38-), 0.5 μg CD33-IgG1 or 0.1 μM IRAK4 inhibitor, 24 hours, autologous BM plasma, n=4) was 44%. For the same molecule, the CASP1 expression (lower-risk MDS BM-MNC) was “reduced”, the CASP3 expression (lower-risk MDS BM-MNC) was “markedly reduced” and the IL-1β expression (lower-risk MDS BM-MNC) was “reduced”. For the same molecule, the IL-18 expression (lower-risk MDS BM-MNC) was “reduced” and the NLRP3 expression (lower-risk MDS BM-MNC) was “reduced”.
